Common to all, as to assay: MST
For series [1], the target named is Luminal domain of human PERK (PKR-like endoplasmic reticulum kinase), His-tagged (human) (UniProt Q9NZJ5).
In series [2] the target is Luminal domain of human IRE1α (inositol-requiring enzyme 1α), His-tagged (human) (UniProt O75460).
For series [3], the target named is Luminal domain of human ATF6 (activating transcription factor 6), His-tagged (human) (UniProt P18850).
In series [4] the target is Human recombinant GRP78 (BiP, binding immunoglobulin protein) (human, UniProt P11021 19-654).
Series [5] concerns the molecule itself.
Series [6] concerns the molecule itself. The source holds these as a separate data set.
Series [7] concerns the molecule itself. This is another data set of the same source.

Like-named read-outs stand apart in the source and are kept apart here.

The text below walks through data of doi:10.1101/2020.09.22.307744 (bioRxiv, 2020).

Chain of Human recombinant GRP78 (BiP, binding immunoglobulin protein) (P11021 19-654): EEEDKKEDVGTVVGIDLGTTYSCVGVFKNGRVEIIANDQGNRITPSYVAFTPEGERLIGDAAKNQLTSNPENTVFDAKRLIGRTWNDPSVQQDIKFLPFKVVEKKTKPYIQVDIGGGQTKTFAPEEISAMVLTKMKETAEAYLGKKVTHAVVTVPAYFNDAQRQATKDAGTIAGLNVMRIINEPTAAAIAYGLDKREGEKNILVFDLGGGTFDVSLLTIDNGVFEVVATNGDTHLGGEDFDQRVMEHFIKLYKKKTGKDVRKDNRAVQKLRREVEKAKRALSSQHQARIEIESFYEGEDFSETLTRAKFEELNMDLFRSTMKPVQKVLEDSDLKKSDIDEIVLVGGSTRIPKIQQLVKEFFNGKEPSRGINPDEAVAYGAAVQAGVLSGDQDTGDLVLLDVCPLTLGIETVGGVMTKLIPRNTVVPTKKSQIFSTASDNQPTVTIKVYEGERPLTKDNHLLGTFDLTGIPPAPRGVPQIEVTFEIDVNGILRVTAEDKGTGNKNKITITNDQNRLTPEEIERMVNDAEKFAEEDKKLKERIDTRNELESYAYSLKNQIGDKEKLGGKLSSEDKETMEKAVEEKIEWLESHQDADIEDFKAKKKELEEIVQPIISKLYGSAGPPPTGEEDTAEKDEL

Turning to “C-terminal domain of human MANF (C-MANF), E.coli produced (domain or fragment)”, the equilibrium dissociation constant (Kd) came out at 1400 nM in series [1], 241 nM in series [2] and 1300 nM in series [3].
On to “C-terminal domain of human MANF (C-MANF), chemically synthesized (domain or fragment)”, for which the results for the dissociation constant (Kd) in series [1], in series [2] and in series [3] were 7.6 nM, 9.5 nM and 9.8 nM, respectively.
In series [2], “MANF K128A C130S, recombinant human mutant protein (from UniProt P55145 25-182) (natural protein)” returned a Kd of 55 nM.
For the molecule “Mesencephalic astrocyte-derived neurotrophic factor (MANF), recombinant human (from UniProt P55145 25-182) (natural protein)”, the Kd in series [1] worked out at 384 nM; in series [2], 94.7 nM; in series [3] it was 347 nM.

B1: Luminal domain of human IRE1α (inositol-requiring enzyme 1α), His-tagged (domain or fragment, UniProt O75460 19-443, looked up)
chain: IFGSTSTVTLPETLLFVSTLDGSLHAVSKRTGSIKWTLKEDPVLQVPTHVEEPAFLPDPNDGSLYTLGSKNNEGLTKLPFTIPELVQASPCRSSDGILYMGKKQDIWYVIDLLTGEKQQTLSSAFADSLCPSTSLLYLGRTEYTITMYDTKTRELRWNATYFDYAASLPEDDVDYKMSHFVSNGDGLVVTVDSESGDVLWIQNYASPVVAFYVWQREGLRKVMHINVAVETLRYLTFMSGEVGRITKWKYPFPKETEAKSKLTPTLYVGKYSTSLYASPSMVHEGVAVVPRGSTLPLLEGPQTDGVTIGDKGECVITPSTDVKFDPGLKSKNKLNYLRNYWLLIGHHETPLSASTKMLERFPNNLPKHRENVIPADSEKKSFEEVINLVDQTSENAPTTVSRDVEEKPAHAPARPEAPVDSMLKD
modifications: labelled copy: Monolith His-Tag Labeling Kit RED-tris-NTA dye on the His-tag (legends also say Alexa647-labeled through His-tag)
Consider B1, for which the equilibrium dissociation constant (Kd) in series [4] turned out to be 119 nM; in the series “MST [5]”, 7.3 nM; in “MST [6]”, 40 nM; in the series “MST [7]”, 2.7 nM.

B2: Luminal domain of human PERK (PKR-like endoplasmic reticulum kinase), His-tagged (domain or fragment, UniProt Q9NZJ5 30-514, looked up)
chain: AGRARGLPAPTAEAAFGLGAAAAPTSATRVPAAGAVAAAEVTVEDAEALPAAAGEQEPRGPEPDDETELRPRGRSLVIISTLDGRIAALDPENHGKKQWDLDVGSGSLVSSSLSKPEVFGNKMIIPSLDGALFQWDQDRESMETVPFTVESLLESSYKFGDDVVLVGGKSLTTYGLSAYSGKVRYICSALGCRQWDSDEMEQEEDILLLQRTQKTVRAVGPRSGNEKWNFSVGHFELRYIPDMETRAGFIESTFKPNENTEESKIISDVEEQEAAIMDIVIKVSVADWKVMAFSKKGGHLEWEYQFCTPIASAWLLKDGKVIPISLFDDTSYTSNDDVLEDEEDIVEAARGATENSVYLGMYRGQLYLQSSVRISEKFPSSPKALESVTNENAIIPLPTIKWKPLIHSPSRTPVLVGSDEFDKCLSNDKFSHEEYSNGALSILQYPYDNGYYLPYYKRERNKRSTQITVRFLDNPHYNKNIRKKD
modifications: Monolith His-Tag Labeling Kit RED-tris-NTA dye on the His-tag
B2: in series [4], the Kd came out at 14.1 nM.

B3: Luminal domain of human ATF6 (activating transcription factor 6), His-tagged (domain or fragment, UniProt P18850 399-670, looked up)
chain: EQDSRRMNPSVSPANQRRHLLGFSAKEAQDTSDGIIQKNSYRYDHSVSNDKALMVLTEEPLLYIPPPPCQPLINTTESLRLNHELRGWVHRHEVERTKSRRMTNNQQKTRILQGALEQGSNSQLMAVQYTETTSSISRNSGSELQVYYASPRSYQDFFEAIRRRGDTFYVVSFRRDHLLLPATTHNKTTRPKMSIVLPAININENVINGQDYEVMMQIDCQVMDTRILHIKSSSVPPYLRDQQRNQTNTFFGSPPAATEATHVVSTIPESLQ
modifications: glycosylated (PNGase F assay); Monolith His-Tag Labeling Kit RED-tris-NTA dye on the His-tag
With B3, in series [4], the dissociation constant (Kd) was found to be 21 nM.

As usually defined, the Kd is the concentration at which binding is half-saturated.
